In patent US20210171613A1 (NATIONAL RESEARCH COUNCIL OF CANADA, published 2021):
Residue numbers refer to the chain shown, from its start. Names and notes keep the numbering of the source.

B1: A26.8 VHH mutant T54W (VHH, not shown: small tags and cut ends)
VHH: QVKLEESGGGLVQAGGSLRLSCAASERTFSRYPVAWFRQAPGAEREFVAVISSWGTSTYYADSVKGRFTISRDNAKVTVYLQMNNLKREDTAVYFCAVNSQRTRLQDPNEYDYWGQGTQVTVSS
B2: A26.8-T56R, Q101K, T103K (VHH, not shown: small tags and cut ends)
VHH: B1 VHH with W54T, T56R, Q101K, T103K
B3: A26.8 VHH mutant T54Y (VHH, not shown: small tags and cut ends)
VHH: B1 VHH with W54Y
B4: A26.8-T54R (VHH, not shown: small tags and cut ends)
VHH: B1 VHH with W54R
B5: A26.8-T56R, Q101K (VHH, not shown: small tags and cut ends)
VHH: B1 VHH with W54T, T56R, Q101K
B6: A26.8-N109R (VHH, not shown: small tags and cut ends)
VHH: B1 VHH with W54T, N109R
B7: A26.8-T58K (VHH, not shown: small tags and cut ends)
VHH: B1 VHH with W54T, T58K
B8: A26.8-Q101K,T103R (VHH, not shown: small tags and cut ends)
VHH: B1 VHH with W54T, Q101K, T103R
B9: A26.8-T56I (VHH, not shown: small tags and cut ends)
VHH: B1 VHH with W54T, T56I
B10: A26.8-T56R, T103M (VHH, not shown: small tags and cut ends)
VHH: B1 VHH with W54T, T56R, T103M
B11: A26.8-Q101K,T103K (VHH, not shown: small tags and cut ends)
VHH: B1 VHH with W54T, Q101K, T103K
B12: A26.8-T56R, T103K (VHH, not shown: small tags and cut ends)
VHH: B1 VHH with W54T, T56R, T103K
B13: A26.8-T56R, Q101K, T103M (VHH, not shown: small tags and cut ends)
VHH: B1 VHH with W54T, T56R, Q101K, T103M
B14: A26.8-Q101K,T103M (VHH, not shown: small tags and cut ends)
VHH: B1 VHH with W54T, Q101K, T103M
B15: A26.8-T103M (VHH, not shown: small tags and cut ends)
VHH: B1 VHH with W54T, T103M

What follows are binders tested against T1, Clostridium difficile toxin A (TcdA) (Clostridium difficile, UniProt P16154 1-2710) (assay: SPR (Biacore 3000), VHH over immobilized TcdA, 1:1 fit).
T1 construct: mature; also called full-length TcdA
T1 sequence (P16154 whole entry): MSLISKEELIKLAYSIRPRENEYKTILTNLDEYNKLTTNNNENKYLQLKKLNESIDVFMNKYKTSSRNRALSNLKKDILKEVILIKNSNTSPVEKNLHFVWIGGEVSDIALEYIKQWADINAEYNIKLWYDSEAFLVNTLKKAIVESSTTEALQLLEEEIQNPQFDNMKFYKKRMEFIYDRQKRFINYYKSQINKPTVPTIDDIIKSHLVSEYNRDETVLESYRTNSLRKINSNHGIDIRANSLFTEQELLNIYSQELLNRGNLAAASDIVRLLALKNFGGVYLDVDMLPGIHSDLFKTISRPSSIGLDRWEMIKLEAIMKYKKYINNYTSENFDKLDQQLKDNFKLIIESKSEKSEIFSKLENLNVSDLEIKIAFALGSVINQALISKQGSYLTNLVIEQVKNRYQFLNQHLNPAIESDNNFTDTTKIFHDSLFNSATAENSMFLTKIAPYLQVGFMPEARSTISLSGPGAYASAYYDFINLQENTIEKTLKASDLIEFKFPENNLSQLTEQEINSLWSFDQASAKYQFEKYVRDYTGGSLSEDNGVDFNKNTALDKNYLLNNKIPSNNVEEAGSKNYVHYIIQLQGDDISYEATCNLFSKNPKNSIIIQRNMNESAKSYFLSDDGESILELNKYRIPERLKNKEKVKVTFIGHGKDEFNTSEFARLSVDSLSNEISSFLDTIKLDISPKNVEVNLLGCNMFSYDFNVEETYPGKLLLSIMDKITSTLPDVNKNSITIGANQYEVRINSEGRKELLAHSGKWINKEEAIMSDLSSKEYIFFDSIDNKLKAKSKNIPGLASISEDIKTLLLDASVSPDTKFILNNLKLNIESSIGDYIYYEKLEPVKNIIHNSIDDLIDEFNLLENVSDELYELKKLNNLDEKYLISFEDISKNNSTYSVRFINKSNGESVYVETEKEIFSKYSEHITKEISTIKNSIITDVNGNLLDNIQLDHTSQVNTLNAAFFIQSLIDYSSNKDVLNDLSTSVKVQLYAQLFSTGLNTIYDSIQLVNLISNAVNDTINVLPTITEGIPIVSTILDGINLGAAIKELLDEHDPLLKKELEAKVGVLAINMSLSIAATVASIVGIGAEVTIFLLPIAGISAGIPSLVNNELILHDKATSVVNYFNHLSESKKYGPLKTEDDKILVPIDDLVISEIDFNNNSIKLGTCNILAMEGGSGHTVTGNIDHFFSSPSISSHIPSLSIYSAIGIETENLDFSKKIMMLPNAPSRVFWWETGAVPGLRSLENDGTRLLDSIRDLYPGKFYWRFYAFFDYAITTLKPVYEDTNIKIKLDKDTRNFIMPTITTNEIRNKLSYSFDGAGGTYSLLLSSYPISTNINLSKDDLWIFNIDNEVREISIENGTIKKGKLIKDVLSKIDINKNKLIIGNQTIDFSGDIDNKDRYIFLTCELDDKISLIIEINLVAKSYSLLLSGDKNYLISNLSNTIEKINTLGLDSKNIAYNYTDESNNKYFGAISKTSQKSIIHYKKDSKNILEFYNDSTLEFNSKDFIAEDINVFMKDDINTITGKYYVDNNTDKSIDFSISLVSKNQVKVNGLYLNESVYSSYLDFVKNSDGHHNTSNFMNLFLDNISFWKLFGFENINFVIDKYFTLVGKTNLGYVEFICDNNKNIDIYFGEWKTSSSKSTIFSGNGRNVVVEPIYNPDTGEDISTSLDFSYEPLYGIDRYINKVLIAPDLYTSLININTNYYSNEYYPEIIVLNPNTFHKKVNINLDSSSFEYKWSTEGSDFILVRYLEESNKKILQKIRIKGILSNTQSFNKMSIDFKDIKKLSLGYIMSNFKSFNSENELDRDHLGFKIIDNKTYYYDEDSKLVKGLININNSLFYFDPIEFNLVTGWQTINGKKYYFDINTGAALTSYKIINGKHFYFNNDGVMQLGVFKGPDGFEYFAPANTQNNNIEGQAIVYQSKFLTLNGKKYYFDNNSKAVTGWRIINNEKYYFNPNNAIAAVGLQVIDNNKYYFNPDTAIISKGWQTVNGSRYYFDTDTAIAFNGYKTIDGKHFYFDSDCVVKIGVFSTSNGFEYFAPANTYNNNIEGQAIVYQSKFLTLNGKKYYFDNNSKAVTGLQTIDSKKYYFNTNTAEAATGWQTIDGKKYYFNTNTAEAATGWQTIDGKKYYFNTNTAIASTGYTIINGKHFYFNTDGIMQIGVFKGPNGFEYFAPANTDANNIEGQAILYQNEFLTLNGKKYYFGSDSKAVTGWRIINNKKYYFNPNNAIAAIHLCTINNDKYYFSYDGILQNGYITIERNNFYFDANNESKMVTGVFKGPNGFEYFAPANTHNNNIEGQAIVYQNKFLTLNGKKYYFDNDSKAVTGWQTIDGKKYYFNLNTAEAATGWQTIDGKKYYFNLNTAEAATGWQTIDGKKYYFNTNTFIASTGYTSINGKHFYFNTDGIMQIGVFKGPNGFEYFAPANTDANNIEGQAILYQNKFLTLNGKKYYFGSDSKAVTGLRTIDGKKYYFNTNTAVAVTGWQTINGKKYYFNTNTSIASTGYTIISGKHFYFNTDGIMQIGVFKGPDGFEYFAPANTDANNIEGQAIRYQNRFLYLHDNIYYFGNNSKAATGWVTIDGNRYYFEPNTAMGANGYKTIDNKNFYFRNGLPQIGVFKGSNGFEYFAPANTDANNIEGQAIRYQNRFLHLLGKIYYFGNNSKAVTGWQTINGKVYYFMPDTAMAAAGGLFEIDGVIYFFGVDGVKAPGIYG
Method: (§1) Before surface plasmon resonance (SPR) binding experiments, IMAC-purified VHHs were subjected to de-salting and further purification by size-exclusion chromatography (SEC). Approximately 500 μg of each VHH was injected over a Superdex 75 Increase 10/300 GL SEC column (GE Healthcare) in Biacore running buffer HBS-EP (10 mM HEPES pH 7.4, 150 mM NaCl, 3 mM EDTA, 0.005% (v/v) P20; GE Healthcare) under the control of an ÄKTA FPLC at 0.8 mL/min. Monomeric VHH fractions were collected and analyzed for binding to TcdA using a Biacore 3000 SPR instrument (GE Healthcare). Approximately 4,500 resonance units (RUs) of TcdA (List Biological Laboratories, Campbell, Calif.) were immobilized on a CM5 sensor chip (GE Healthcare) using the conditions previously described (Hussack et al, 2011). HBS-EP running buffer was used for all binding studies and regeneration of TcdA surfaces. Next, various dilution ranges of VHHs (as low as 10 nM-0.5 nM to as high as 5 μM-50 nM) were injected over immobilized TcdA at a flow rate of 40 μL/min with 120 s contact time and 600 s dissociation. Reference-subtracted sensorgrams were analyzed with BIAevaluation software (GE Healthcare) and fit to a 1:1 binding model. In cases where rapid kₒₙ and koff rate constants were observed, equilibrium dissociation constants (KDs) were determined by steady-state analysis.

Row | Binder | Kd | koff | kon
1 | B1 | 35 nM | 0.0561 s⁻¹ | 1.61e+06 M⁻¹ s⁻¹
2 | B2 | 3.19 nM | 0.0467 s⁻¹ | 1.47e+07 M⁻¹ s⁻¹
3 | B3 | 38.9 nM | 0.0694 s⁻¹ | 1.81e+06 M⁻¹ s⁻¹
4 | B4 | 13.2 nM | 0.044 s⁻¹ | 3.55e+06 M⁻¹ s⁻¹
5 | B5 | 4.13 nM | 0.0497 s⁻¹ | 1.24e+07 M⁻¹ s⁻¹
6 | B6 | 13.9 nM | 0.0268 s⁻¹ | 1.95e+06 M⁻¹ s⁻¹
7 | B7 | 13.5 nM | 0.0327 s⁻¹ | 2.47e+06 M⁻¹ s⁻¹
8 | B8 | 4.2 nM | 0.0226 s⁻¹ | 5.45e+06 M⁻¹ s⁻¹
9 | B9 | 13.6 nM | 0.0262 s⁻¹ | 1.94e+06 M⁻¹ s⁻¹
10 | B10 | 4.84 nM | 0.0304 s⁻¹ | 6.42e+06 M⁻¹ s⁻¹
11 | B11 | 8.21 nM | 0.0396 s⁻¹ | 4.96e+06 M⁻¹ s⁻¹
12 | B12 | 3.44 nM | 0.0291 s⁻¹ | 8.61e+06 M⁻¹ s⁻¹
13 | B13 | 2.87 nM | 0.0296 s⁻¹ | 1.04e+07 M⁻¹ s⁻¹
14 | B14 | 8.02 nM | 0.0265 s⁻¹ | 3.31e+06 M⁻¹ s⁻¹
15 | B15 | 13.7 nM | 0.0237 s⁻¹ | 1.77e+06 M⁻¹ s⁻¹

Each binder was assayed against T1, Clostridium difficile toxin A (TcdA) (assay: SPR (Biacore 3000), VHH over immobilized TcdA; binding free energy difference relative to parent VHH).
Method: as §1

Row | Binder | ΔΔG
16 | B1 | 1.55 kJ/mol
17 | B2 | -4.31 kJ/mol
18 | B3 | 1.8 kJ/mol
19 | B4 | -0.837 kJ/mol
20 | B5 | -3.68 kJ/mol
21 | B6 | -0.711 kJ/mol
22 | B7 | -0.795 kJ/mol
23 | B8 | -3.64 kJ/mol
24 | B9 | -0.795 kJ/mol
25 | B10 | -3.31 kJ/mol
26 | B11 | -2.01 kJ/mol
27 | B12 | -4.14 kJ/mol
28 | B13 | -4.6 kJ/mol
29 | B14 | -2.05 kJ/mol
30 | B15 | -0.753 kJ/mol

These binders were tested against T1, Clostridium difficile toxin A (TcdA) (assay: SPR (Biacore 3000), VHH over immobilized TcdA; ratio of parent KD to mutant KD).
Method: as §1

Row | Binder | KD^WT/KD
31 | B1 | 0.5
32 | B2 | 5.9
33 | B3 | 0.5
34 | B4 | 1.4
35 | B5 | 4.5
36 | B6 | 1.3
37 | B7 | 1.4
38 | B8 | 4.5
39 | B9 | 1.4
40 | B10 | 3.9
41 | B11 | 2.3
42 | B12 | 5.4
43 | B13 | 6.5
44 | B14 | 2.3
45 | B15 | 1.4
